One data set deals with atToc159 (At4g02510) (UniProt O81283).
In the next data set the target is T1, atToc33 (At1g02280) (UniProt O23680).
T1 sequence: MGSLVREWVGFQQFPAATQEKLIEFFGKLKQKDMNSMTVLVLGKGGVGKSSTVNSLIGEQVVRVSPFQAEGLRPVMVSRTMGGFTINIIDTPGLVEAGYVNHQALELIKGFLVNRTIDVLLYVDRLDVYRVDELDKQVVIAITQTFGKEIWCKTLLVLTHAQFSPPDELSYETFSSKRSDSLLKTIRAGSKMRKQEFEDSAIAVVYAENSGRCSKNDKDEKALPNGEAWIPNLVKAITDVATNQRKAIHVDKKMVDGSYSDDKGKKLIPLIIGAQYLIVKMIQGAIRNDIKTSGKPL

Another data set deals with T2, atToc75-III (At3g46740) (UniProt Q9STE8).
T2 sequence: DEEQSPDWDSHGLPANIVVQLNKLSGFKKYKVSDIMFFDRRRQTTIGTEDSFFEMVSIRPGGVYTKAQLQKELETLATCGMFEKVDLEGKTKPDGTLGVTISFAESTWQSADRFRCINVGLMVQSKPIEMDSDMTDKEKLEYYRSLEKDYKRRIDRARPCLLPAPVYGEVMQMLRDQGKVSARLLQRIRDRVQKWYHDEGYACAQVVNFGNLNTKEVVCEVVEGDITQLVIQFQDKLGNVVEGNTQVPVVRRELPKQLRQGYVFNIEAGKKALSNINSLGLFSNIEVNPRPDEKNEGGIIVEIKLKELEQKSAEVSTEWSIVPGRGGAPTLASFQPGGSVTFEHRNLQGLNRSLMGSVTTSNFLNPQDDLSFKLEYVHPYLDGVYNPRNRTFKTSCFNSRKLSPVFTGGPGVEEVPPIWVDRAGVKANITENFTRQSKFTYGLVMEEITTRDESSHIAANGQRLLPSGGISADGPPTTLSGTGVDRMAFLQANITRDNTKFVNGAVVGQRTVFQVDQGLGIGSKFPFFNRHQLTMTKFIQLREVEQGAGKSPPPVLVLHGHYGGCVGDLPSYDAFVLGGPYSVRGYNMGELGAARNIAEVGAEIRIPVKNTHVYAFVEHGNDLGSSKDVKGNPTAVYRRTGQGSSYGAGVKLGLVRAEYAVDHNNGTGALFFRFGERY

Sequence of UniProt O81283 (O81283 whole entry): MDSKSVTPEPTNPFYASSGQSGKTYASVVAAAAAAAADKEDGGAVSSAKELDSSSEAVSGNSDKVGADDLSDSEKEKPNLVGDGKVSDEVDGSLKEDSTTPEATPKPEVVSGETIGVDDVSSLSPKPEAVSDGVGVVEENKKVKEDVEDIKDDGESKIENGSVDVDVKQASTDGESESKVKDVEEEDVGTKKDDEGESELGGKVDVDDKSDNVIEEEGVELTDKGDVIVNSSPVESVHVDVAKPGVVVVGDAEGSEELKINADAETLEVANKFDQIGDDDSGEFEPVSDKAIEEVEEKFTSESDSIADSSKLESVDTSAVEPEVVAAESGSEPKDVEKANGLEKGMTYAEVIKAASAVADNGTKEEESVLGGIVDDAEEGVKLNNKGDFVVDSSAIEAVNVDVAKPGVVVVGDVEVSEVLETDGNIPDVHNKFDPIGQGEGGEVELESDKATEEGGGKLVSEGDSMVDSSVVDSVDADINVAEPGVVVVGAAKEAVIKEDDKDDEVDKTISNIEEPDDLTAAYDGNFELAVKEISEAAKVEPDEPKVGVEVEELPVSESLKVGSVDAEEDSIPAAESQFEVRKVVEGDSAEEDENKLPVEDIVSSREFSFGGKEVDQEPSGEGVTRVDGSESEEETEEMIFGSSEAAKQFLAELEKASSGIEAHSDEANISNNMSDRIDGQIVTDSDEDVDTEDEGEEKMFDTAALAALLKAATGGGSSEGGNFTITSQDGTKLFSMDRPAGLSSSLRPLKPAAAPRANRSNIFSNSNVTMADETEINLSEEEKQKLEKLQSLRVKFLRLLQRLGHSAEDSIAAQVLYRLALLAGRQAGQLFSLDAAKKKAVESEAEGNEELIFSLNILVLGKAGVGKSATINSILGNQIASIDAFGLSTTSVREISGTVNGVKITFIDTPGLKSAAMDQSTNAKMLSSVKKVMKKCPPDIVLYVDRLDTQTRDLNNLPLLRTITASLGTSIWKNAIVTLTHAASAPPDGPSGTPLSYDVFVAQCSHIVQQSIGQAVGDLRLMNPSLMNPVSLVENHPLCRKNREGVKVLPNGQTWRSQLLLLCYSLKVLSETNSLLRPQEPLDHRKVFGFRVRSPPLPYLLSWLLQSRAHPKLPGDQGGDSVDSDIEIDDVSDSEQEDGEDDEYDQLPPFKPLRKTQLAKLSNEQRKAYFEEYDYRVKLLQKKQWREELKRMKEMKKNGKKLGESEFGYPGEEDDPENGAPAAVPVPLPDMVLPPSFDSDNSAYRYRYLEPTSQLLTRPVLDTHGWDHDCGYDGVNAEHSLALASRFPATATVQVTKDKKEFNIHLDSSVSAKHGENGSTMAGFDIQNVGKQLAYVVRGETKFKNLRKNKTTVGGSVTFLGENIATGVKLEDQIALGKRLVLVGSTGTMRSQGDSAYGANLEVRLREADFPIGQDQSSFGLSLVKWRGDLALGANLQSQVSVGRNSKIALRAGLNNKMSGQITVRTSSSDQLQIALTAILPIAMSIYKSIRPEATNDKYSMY

B1: GST-SP1flex (SP1 intermembrane space and cytosolic domains joined by a flexible linker, N-terminal GST tag) (enzyme, part only; not given: N-terminal GST tag)
chain, part: RSSGRDAEVLETVTRVNQLKELAQLLELDSKILPFIVAVSGRVGSETPIKCEHSGIRGVIVEETAEQHFLKHNETGSWVQDSALMLSMSKEVPWFLDDGTSRVHVMGARGATGFALTVGSEVFEESGRSLVRGTLDYLQGLKMLGVKRIERVLPTGIPLTIVGEAVKDDIGEFRIQKPDRGPFYVSSKSLDQLISNLGKWSRLYKIDSVLERRRRRQLQKRVLDAAAKRAELESEGSNGTRESISDSTKKEDAVPDLCVICLEQEYNAVFVPCGHMCCCTACSSHLTSCPLCRRRIDLAVKTYRH
Regarding B1, the “In vitro ubiquitination (high-molecular-weight species of radiolabelled substrate)” value in the data set with atToc159 (At4g02510), with atToc33 (At1g02280) and with atToc75-III (At3g46740) was “for each TOC substrate the extent of ubiquitination was enhanced in the presence of SP1” each time.

(Values after US20160108416.)
